PMC5172458

Substrate: O=c1ccn([C@H]2C[C@H](O)[C@@H](COP(=O)(O)O)O2)c(=O)[nH]1
Assay: purified protein
Format: biochemical, Escherichia coli
Conditions: 25 °C, CH2H4folate fixed at 50 μM, TCEP

B1: ecTSase (Escherichia coli thymidylate synthase) (Escherichia coli K-12; H147V) (protein)
chain: MKQYLELMQKVLDEGTQKNDRTGTGTLSIFGHQMRFNLQDGFPLVTTKRCHLRSIIHELLWFLQGDTNIAYLHENNVTIWDEWADENGDLGPVYGKQWRAWPTPDGRHIDQITTVLNQLKNDPDSRRIIVSAWNVGELDKMALAPCVAFFQFYVADGKLSCQLYQRSCDVFLGLPFNIASYALLVHMMAQQCDLEVGDFVWTGGDTHLYSNHMDQTHLQLSREPRPLPKLIIKRKPESIFDYRFEDFEIEGYDPHPGIKAPVAI
  Km: 4.0 ± 1.3 µM
  kcat: 0.61 ± 0.04 s⁻¹
